These are literature values, as cited in paper PMC2773841.

pKd: −log10 of the molar value.

As a reminder, the pKd is the Kd on a negative log10 scale, so that one unit is a factor of ten.

This series addresses DnaK (Escherichia coli) (UniProt P0A6Y8).

Chain of DnaK (Escherichia coli) (P0A6Y8 2-638): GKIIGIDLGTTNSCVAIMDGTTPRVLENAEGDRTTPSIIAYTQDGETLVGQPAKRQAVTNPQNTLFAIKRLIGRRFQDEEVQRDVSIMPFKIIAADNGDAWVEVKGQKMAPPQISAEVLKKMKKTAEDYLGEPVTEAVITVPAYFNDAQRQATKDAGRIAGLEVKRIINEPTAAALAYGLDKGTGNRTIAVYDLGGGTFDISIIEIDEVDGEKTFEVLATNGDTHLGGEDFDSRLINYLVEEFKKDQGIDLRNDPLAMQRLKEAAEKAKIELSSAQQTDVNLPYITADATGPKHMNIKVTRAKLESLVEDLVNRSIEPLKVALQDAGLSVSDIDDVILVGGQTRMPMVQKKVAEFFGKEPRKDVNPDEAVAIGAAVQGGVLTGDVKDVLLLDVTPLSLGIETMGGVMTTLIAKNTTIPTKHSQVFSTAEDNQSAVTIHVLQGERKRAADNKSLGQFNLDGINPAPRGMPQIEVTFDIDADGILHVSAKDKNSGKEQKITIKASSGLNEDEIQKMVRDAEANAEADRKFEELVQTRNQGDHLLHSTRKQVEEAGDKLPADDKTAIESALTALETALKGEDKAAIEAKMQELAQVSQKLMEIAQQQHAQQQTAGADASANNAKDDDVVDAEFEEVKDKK
Chain of GrpE (P09372 whole entry): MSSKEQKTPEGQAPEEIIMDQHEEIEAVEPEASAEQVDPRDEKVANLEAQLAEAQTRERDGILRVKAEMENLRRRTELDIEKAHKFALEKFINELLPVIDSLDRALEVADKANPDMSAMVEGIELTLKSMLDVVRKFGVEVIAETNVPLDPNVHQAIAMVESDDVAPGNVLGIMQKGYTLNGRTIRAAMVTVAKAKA

GrpE (from UniProt P09372): the pKd is 9.00.
